Laboratory results reported in patent US10501502B2, “Allophycocyanin alpha-subunit evolved labeling proteins (smURFPs)” (The Regents of the University of California, priority 2016, dated 2019).

What was measured:
[1] = Incorporation rates in vitro of BV on initially chromophore-free smURFP; format: biochemical
Description: EX and EM spectra were obtained using SPEX Fluorolog fluorometer (Horiba). Absorbance spectra were obtained using UV-VIS Spectrophotometer Cary Eclipse (Varian) or UV-2700 (Shimadzu). Quantum yield was determined relative to Cy5. Incorporation rates of BV on 0.5 μM smURFP was performed by addition of smURFP to PBS alone or with 20% fetal bovine serum (FBS) and mixed by pipetting in a quartz cuvette. Chromophore was added last, mixed by pipetting, and fluorescence was recorded using SPEX Fluorolog fluorometer (Horiba). Photobleaching was characterized on bubbles of purified FP or Cy5 within mineral oil using light from a 150 W xenon arc lamp with 100% light through EX/EM=628(40)/680(30) nm for smURFP, TDsmURFP, and Cy5 or EX/EM=665 (45)/725 (50) nm for IFP 1.4 focused with a 40×, 1.2 numerical aperture C-Apochromat oil-immersion lens on a Zeiss Axiovert 200M inverted microscope. Photobleaching times were normalized to reflect an initial illumination intensity producing 1,000 photons per fluorescent molecule per second as previously described^37.

[2] = test system: HT1080 tumor xenografts; experiment: Fluorescence imaging of HT1080 tumor xenografts in vivo; set-up: species or system mice
Source text: HT1080 cells were infected with CMV with smURFP-T2A-mCherry, smURFP-T2A-mCardinal, smURFP, and mCardinal lentiviruses in culture, and expression was verified by fluorescence imaging (FIG. 19a, ≥99% efficiency and FIG. 20a, ≥95% efficiency) using filters described in the previous section. All procedures using mice were approved by UCSD IACUC (#S03172M) and are consistent with the recommendations of the American Veterinary Medical Association. One million HT1080 cells expressing smURFP-T2A-mCherry were injected subcutaneously into the lateral, ventral, and upper right and left quadrant, or smURFP and mCardinal were injected subcutaneously into the lateral, dorsal, and lower right and left quadrant of four 5-week-old athymic nude female mice. Tumors were allowed to grow until ˜0.1-1 cm in diameter (˜2 weeks). Mice were anesthetized with isoflurane (1.5%) at a 2 liter/min flow, injected with ketamine-midazolam (intraperitoneal (IP), 80 mg/kg, 4 mg/kg), placed on a heated pad, and imaged before exogenous BV injection. 250 nmol BV was injected by intravenous (IV) tail vein, and mice were imaged 5, 30, 60, and 120 min after BV injection for smURFP-T2A-mCherry. 250 nmol BV or BVMe2 was injected by intravenous tail vein, and mice were imaged 60 min, 24 h, and 48 h after BV injection for smURFP and mCardinal tumors. Mice were imaged using a Maestro in vivo Imaging System (Cambridge Research & Instrumentation, CRI). FPs were imaged with the following filters: mCherry, EX/EM=590(23)/615LP nm and liquid crystal, 620 nm; mCardinal EX/EM=607(36)645LP nm and liquid crystal, 660 nm; and smURFP EX/EM=620(20)/645LP nm or EX/EM=640(47)/700LP and liquid crystal, 710 nm. […] Tumors were removed, washed 2× in 2 ml DMEM+10% FBS, labeled in 2 ml DMEM+10% FBS+10 μM BV or BVMe2 at 4° C. for 24 h, imaged, labeled in 2 ml DMEM+10% FBS+10 μM BV or BVMe2 at 37° C. for 24 h, and imaged (FIG. 20g).

[3] = 0.5 μM smURFP in PBS + 20% FBS, + 0.1 μM BV
[4] = 0.5 μM smURFP in PBS + 20% FBS, + 0.1 μM BV (pH 9.4)
[5] = 0.5 μM smURFP in PBS + 20% FBS, + 0.1 μM BV + 1 mM DTT
[6] = 0.5 μM smURFP in PBS + 20% FBS, + 1 μM BV
[7] = 0.5 μM smURFP in PBS + 20% FBS, + 1 μM BV (pH 9.4)
[8] = 0.5 μM smURFP in PBS + 20% FBS, + 1 μM BV + 1 mM DTT
[9] = 0.5 μM smURFP in PBS + 20% FBS, + 10 μM BV
[10] = 0.5 μM smURFP in PBS + 20% FBS, + 10 μM BV (pH 9.4)
[11] = 0.5 μM smURFP in PBS + 20% FBS, + 10 μM BV + 1 mM DTT
[12] = 0.5 μM smURFP in PBS + 20% FBS, Avg. 3 Conc.
[13] = 0.5 μM smURFP in PBS + 20% FBS, Avg. 3 Conc. (pH 9.4)
[14] = 0.5 μM smURFP in PBS + 20% FBS, Avg. 3 Conc. + 1 mM DTT
[15] = 0.5 μM smURFP in PBS, + 0.1 μM BV
[16] = 0.5 μM smURFP in PBS, + 0.1 μM BV (pH 8)
[17] = 0.5 μM smURFP in PBS, + 0.1 μM BV + 1 mM DTT
[18] = 0.5 μM smURFP in PBS, + 1 μM BV
[19] = 0.5 μM smURFP in PBS, + 1 μM BV (pH 8)
[20] = 0.5 μM smURFP in PBS, + 1 μM BV + 1 mM DTT
[21] = 0.5 μM smURFP in PBS, + 10 μM BV
[22] = 0.5 μM smURFP in PBS, + 10 μM BV (pH 8)
[23] = 0.5 μM smURFP in PBS, + 10 μM BV + 1 mM DTT
[24] = 0.5 μM smURFP in PBS, Avg. 3 Conc.
[25] = 0.5 μM smURFP in PBS, Avg. 3 Conc. (pH 8)
[26] = 0.5 μM smURFP in PBS, Avg. 3 Conc. + 1 mM DTT

B1: smURFP: small ultra-red fluorescent protein, SEQ ID NO: 13, homodimer, covalently attaches biliverdin (protein)
chain: MKTSEQRVNIATLLTENKKKIVDKASQDLWRRHPDLIAPGGIAFSQRDRALCLRDYGWFLHLITFCLLAGDKGPIESIGLISIREMYNSLGVPVPAMMESIRCLKEASLSLLDEEDANETAPYFDYIIKAMS
modifications: homodimer; biliverdin chromophore; smRUFP Variant Polypeptide
- A [1, 3]: 1.1
- T50% [1, 3]: 43 min
- k [1, 3]: 0.016 min⁻¹
- A [1, 4]: 0.95
- T50% [1, 4]: 7.1 min
- k [1, 4]: 0.097 min⁻¹
- A [1, 5]: 0.95
- T50% [1, 5]: 30 min
- k [1, 5]: 0.023 min⁻¹
- A [1, 6]: 1.1
- T50% [1, 6]: 58 min
- k [1, 6]: 0.012 min⁻¹
- A [1, 7]: 0.99
- T50% [1, 7]: 16 min
- k [1, 7]: 0.043 min⁻¹
- A [1, 8]: 0.95
- T50% [1, 8]: 32 min
- k [1, 8]: 0.022 min⁻¹
- A [1, 9]: 1.1
- T50% [1, 9]: 46 min
- k [1, 9]: 0.015 min⁻¹
- A [1, 10]: 0.99
- T50% [1, 10]: 11 min
- k [1, 10]: 0.063 min⁻¹
- A [1, 11]: 0.96
- T50% [1, 11]: 16 min
- k [1, 11]: 0.043 min⁻¹
- A [1, 12]: 1.1
- T50% [1, 12]: 50 min
- k [1, 12]: 0.014 min⁻¹
- A [1, 13]: 0.98
- T50% [1, 13]: 11 min
- k [1, 13]: 0.066 min⁻¹
- A [1, 14]: 0.95
- T50% [1, 14]: 24 min
- k [1, 14]: 0.029 min⁻¹
- A [1, 15]: 1.1
- T50% [1, 15]: 29 min
- k [1, 15]: 0.024 min⁻¹
- A [1, 16]: 1.1
- T50% [1, 16]: 24 min
- k [1, 16]: 0.029 min⁻¹
- A [1, 17]: 1.1
- T50% [1, 17]: 58 min
- k [1, 17]: 0.012 min⁻¹
- A [1, 18]: 1.1
- T50% [1, 18]: 46 min
- k [1, 18]: 0.015 min⁻¹
- A [1, 19]: 1.1
- T50% [1, 19]: 24 min
- k [1, 19]: 0.029 min⁻¹
- A [1, 20]: 1.1
- T50% [1, 20]: 63 min
- k [1, 20]: 0.011 min⁻¹
- A [1, 21]: 1.1
- T50% [1, 21]: 46 min
- k [1, 21]: 0.015 min⁻¹
- A [1, 22]: 1.1
- T50% [1, 22]: 22 min
- k [1, 22]: 0.032 min⁻¹
- A [1, 23]: 1.1
- T50% [1, 23]: 46 min
- k [1, 23]: 0.015 min⁻¹
- A [1, 24]: 1.0
- T50% [1, 24]: 39 min
- k [1, 24]: 0.018 min⁻¹
- A [1, 25]: 1.1
- T50% [1, 25]: 2 min
- k [1, 25]: 0.030 min⁻¹
- A [1, 26]: 1.1
- T50% [1, 26]: 53 min
- k [1, 26]: 0.013 min⁻¹
- chromophore maturation or attachment t50% ([1]; BV attachment): 39^ min
- fluorescence change after 250 nmol BV intravenously ([2]; after 2 h): no increase in fluorescence
- fold dimmer than mCardinal in vivo ([2]; at 607 nm): ~7.3 fold
- fold dimmer than mCardinal in vivo ([2]; at 640 nm): ~4 fold
- fluorescence of excised tumors with 10 μM BV or BVMe2 ([2]; ex vivo): enhanced fluorescence
- fluorescence in tumor xenografts without exogenous BV ([2]; mouse, in vivo): visible without exogenous BV
- loss of fluorescence through the skin ([2]; mouse, in vivo): 25%
- fluorescence change after injection of 250 nmol BV or BVMe2 ([2]; smURFP vs mCardinal tumors): no increase in fluorescence in vivo
- fluorescence intensity relative to mCherry in vivo ([2]; without exogenous BV): 35%
